Substitutions are numbered along the chain they refer to. Like-named read-outs stand apart in the source and are kept apart here. One block for each binder: values may come before it.
What was measured:
[1] = molecular target: T1, human ST2L on HEK-BLUE IL-33/IL-1beta cells (human, UniProt Q01638 19-556); test: cell-based or functional assay
T1 sequence: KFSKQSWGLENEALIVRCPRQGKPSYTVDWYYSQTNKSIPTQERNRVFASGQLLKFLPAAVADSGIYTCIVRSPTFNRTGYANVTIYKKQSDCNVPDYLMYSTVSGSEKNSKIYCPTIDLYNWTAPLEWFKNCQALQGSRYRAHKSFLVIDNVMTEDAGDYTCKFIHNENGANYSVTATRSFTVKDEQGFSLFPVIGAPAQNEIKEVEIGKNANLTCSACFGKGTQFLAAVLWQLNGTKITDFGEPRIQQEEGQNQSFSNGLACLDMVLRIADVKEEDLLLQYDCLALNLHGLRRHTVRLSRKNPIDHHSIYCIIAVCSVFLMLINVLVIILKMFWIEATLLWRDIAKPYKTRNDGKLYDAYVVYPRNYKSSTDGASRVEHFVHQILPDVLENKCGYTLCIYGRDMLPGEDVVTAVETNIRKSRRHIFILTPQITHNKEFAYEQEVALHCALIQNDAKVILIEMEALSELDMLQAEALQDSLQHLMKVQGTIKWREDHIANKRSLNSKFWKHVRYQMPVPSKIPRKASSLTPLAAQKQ

[2] = molecular target: T2, human IL-33 (R&D Systems, #3625-IL-010/CF) (human, UniProt O95760 112-270); test: cell-based or functional assay
T2 sequence (looked up): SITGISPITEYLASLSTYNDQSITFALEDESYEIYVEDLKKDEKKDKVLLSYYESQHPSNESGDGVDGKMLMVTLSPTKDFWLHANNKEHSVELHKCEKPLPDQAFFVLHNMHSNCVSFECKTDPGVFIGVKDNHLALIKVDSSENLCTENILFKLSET

[3] = molecular target: T2, human IL-33 (R&D Systems, …); test: cell-based or functional assay; remark: listed apart in the source
[4] = molecular target: T2, human IL-33 (R&D Systems, …); test: cell-based or functional assay; remark: listed apart in the source
[5] = molecular target: T2, human IL-33 (R&D Systems, …); test: cell-based or functional assay; remark: listed apart in the source
[6] = molecular target: T2, human IL-33 (R&D Systems, …); test: cell-based or functional assay; remark: listed apart in the source
biotinylated human IL-33 = molecular target: T3, biotinylated human IL-33 (human, UniProt O95760 112-270, biotin-labeled with EZ-LINK NHS-PEG4-Biotin); test: competitive ELISA, biotin-huIL-33 to coated hST2-Fc
T3 construct: also called biotin-huIL-33
T3 sequence (looked up): T2 sequence (looked up)
Procedure: The ability of the anti-IL-33 antibody 10C12.38.H6.87Y.58I IgG4 and each anti-IL-33 antibody listed in Table 5 (RG1-RG20) to block either human IL-33 or cyno IL-33 binding to human ST2 receptor was tested in a competitive binding ELISA. Briefly, 1 μg/ml of recombinant human ST2-Fc chimera protein prepared in coating buffer (50 mM sodium carbonate, pH 9.6) was coated on a 384-well MAXISORP® plate (Nalgene Nunc International; Rochester, N.Y.) and incubated overnight at 4° C. On the next day, non-specific binding was blocked with PBS containing 0.5% (w/v) solution of bovine serum albumin (BSA). Fixed concentrations of biotinylated human or cyno IL-33 prepared in assay buffer (25 mM PBS, pH 7.2, 0.1% BSA, 0.05% TWEEN®-20) were mixed with an equal volume of serially-diluted anti-IL-33 antibodies or assay buffer alone and incubated for 1 h at room temperature. The final assay concentrations of biotinylated human IL-33 or cyno IL-33 were 20 pM and 45 pM, respectively, and the final assay concentration of each antibody ranged from 0-300 nM. The pre-mixed solutions were added to the ST2-Fc coated plate and incubated for 1 h at room temperature. The binding of biotinylated IL-33 to coated ST2-Fc was detected by the sequential addition of Streptavidin Poly-HRP80 (Fitzgerald; Buckinghamshire, UK) and 3,3′,5,5′-tetramethyl benzidine (TMB) Microwell Peroxidase Substrate System (KPL; Gaithersburg, Md.). The absorbance (450 nm) was recorded using a […] ASCENT® plate reader (Thermo Scientific; Rockford, Ill.). The binding activity (%) of biotin-IL-33 to ST2 in the presence of anti-IL-33 was plotted as a function of antibody concentration. The data generated were fitted to a four-parameter equation to determine IC₅₀ values for each antibody (FIGS. 25A and 25B) using Prism software (Graphpad Software; La Jolla, Calif.). The maximum blocking (%) of each antibody was calculated as the ratio of the reduction in signal measured in the presence of antibody relative to the difference between the signal with IL-33 alone and background measurements.

[7] = molecular target: T2, human IL-33 (R&D Systems, …); test: SPR Biacore T200, 37 C
Summary of the method: (§1)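 Antibodies captured via anti-Fc on CM5 chip; IL-33 injected at 3.7–100 nM (three-fold series), 4 min association, 10 min dissociation, 30 μl/min, ADA pH 7.4 buffer with 0.15 M NaCl, EDTA, Tween-20, at 25 °C or 37 °C. KD = koff/kon from 1:1 Langmuir fit; t1/2 = ln(2)/(60*koff).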

cyno IL-33 N-His [8] = molecular target: T4, cyno IL-33 N-His (cynomolgus monkey); test: SPR Biacore T200, 37 C
T4 chain: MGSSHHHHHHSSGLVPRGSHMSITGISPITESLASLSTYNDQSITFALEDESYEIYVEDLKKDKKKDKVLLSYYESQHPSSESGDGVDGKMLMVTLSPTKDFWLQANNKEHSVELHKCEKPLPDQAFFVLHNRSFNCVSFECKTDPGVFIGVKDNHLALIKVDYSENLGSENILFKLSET
Summary of the method: as §1

[9] = molecular target: T2, human IL-33 (R&D Systems, …); test: cell-based or functional assay; remark: listed apart in the source
[10] = molecular target: T2, human IL-33 (R&D Systems, …); test: SPR Biacore T200, 25 C
Summary of the method: as §1

cyno IL-33 N-His [11] = molecular target: T4, cyno IL-33 N-His; test: SPR Biacore T200, 25 C
Summary of the method: as §1

[12] = molecular target: T2, human IL-33 (R&D Systems, …); test: cell-based or functional assay; remark: listed apart in the source
[13] = molecular target: T2, human IL-33 (R&D Systems, …); test: cell-based or functional assay; remark: listed apart in the source
biotinylated cyno IL-33 = molecular target: T5, biotinylated cyno IL-33 (cynomolgus monkey, UniProt A0A2K5W3I1 112-269, biotin-labeled with EZ-LINK NHS-PEG4-Biotin); test: competitive ELISA, biotin-cyIL-33 to coated hST2-Fc
T5 construct: also called biotin-cyIL-33
T5 sequence: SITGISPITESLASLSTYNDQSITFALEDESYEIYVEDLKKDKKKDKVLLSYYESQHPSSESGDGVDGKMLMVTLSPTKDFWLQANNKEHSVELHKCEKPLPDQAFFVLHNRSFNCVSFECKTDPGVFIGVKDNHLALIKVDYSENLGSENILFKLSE
Summary of the method: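 Recombinant human ST2-Fc coated at 1 μg/ml; biotin-IL-33 (final 20 pM human, 45 pM cyno) premixed 1 h RT with serially diluted antibody (0–300 nM final), then bound to ST2-Fc 1 h RT. Streptavidin-polyHRP/TMB, A450; IC₅₀ from four-parameter fit, max blocking relative to IL-33-alone signal minus background.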

[14] = molecular target: T6, cynomolgus monkey N-terminal 6-His-tagged and C-terminal Avi-tagged IL-33 (S112-T270) (cynomolgus monkey); test: cell-based or functional assay
T6 chain: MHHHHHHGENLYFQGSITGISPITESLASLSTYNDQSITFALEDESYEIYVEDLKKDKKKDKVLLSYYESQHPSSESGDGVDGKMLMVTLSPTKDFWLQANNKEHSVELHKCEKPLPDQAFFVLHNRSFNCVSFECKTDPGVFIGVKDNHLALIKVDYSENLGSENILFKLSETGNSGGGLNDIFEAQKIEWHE

B2: H4H9629P (antibody, IgG4, V domains shown)
VH: EVQLVESGGGLVQPGGSLRLSCAASGFTFRSFAMSWVRQAPGKGLELVSDLRTSGGSTYYADSVKGRLTISRDNSKNTLYLQMNSLRAEDTAVYYCAKSHYSTSWFGGFDYWGQGTLVTVSS
VL: DIQMTQSPSSVSASVGDRVTITCRASQGFSSWLAWYQQKPGKAPKLLIYAASSLQSGVPSRFSGSGSGTDFTLTITNLQPEDFATYYCQQANSFPLTFGGGTKVEIK
notes: also called RG4
IC50 (read off the curve) [2]: 0.0003 to 0.0004 nM | IC50; SEAP reporter (OD 620), HEK-BLUE IL-33/IL-1beta cells, 10 pM hIL-33 [3]: 3.3e-11 M | Ph-p38 MFI at 2 nM Ab (500 pM human IL-33, primary basophils) [4]: 38 MFI | IC50 (read off the curve) [5]: 0.0003 to 0.0004 nM | Ph-p38 MFI at 0.4 nM Ab (500 pM human IL-33, primary basophils) [6]: 67 MFI | IC50 (biotinylated human IL-33): 0.092 nM | Maximum Blocking (biotinylated human IL-33): 82% | Kd [7]: 0.261 nM | koff [7]: 0.000738 s⁻¹ | kon [7]: 2.82e+06 M⁻¹ s⁻¹ | t1/2 [7]: 16 min | Kd (cyno IL-33 N-His [8]): 547 nM | koff (cyno IL-33 N-His [8]): 0.000502 s⁻¹ | kon (cyno IL-33 N-His [8]): 916 M⁻¹ s⁻¹ | t1/2 (cyno IL-33 N-His [8]): 23 min | IC50, IL-33-induced phospho-p38 in primary human basophils, 500 pM hIL-33 [9]: 3.6e-13 M | Kd [10]: 0.559 nM | koff [10]: 0.000632 s⁻¹ | kon [10]: 1.13e+06 M⁻¹ s⁻¹ | t1/2 [10]: 18 min | Kd (cyno IL-33 N-His [11]): 54 nM | koff (cyno IL-33 N-His [11]): 0.0204 s⁻¹ | kon (cyno IL-33 N-His [11]): 379000 M⁻¹ s⁻¹ | t1/2 (cyno IL-33 N-His [11]): 1 min

B4: H1M9568N (antibody, IgG1, V domains shown)
VH: QVLLVQSGAEVKKPGATVKVSCKASGSTFTGYYMHWVRQAPGQGLEWMGWINPNNGGTNYAQKFQGRVTMTRDTSISTAYMELSRLRSDDTAVYYCARELRYNWKSWGQGTLVTVSS
VL: EIVLTQSPGTLSLSPGERVTLSCRASQSVGRPYLAWYQQIPGQAPRLLIYGASSRATDIPDRFSGNGSGTDFTLTISRLEPEDFAVYYCQQYDNSPYTFGQGTRLEIK
notes: also called RG3
IC50 (read off the curve) [2]: ~0.0004 nM | IC50; SEAP reporter (OD 620), HEK-BLUE IL-33/IL-1beta cells, 10 pM hIL-33 [3]: 1.1e-10 M | IC50; SEAP reporter (OD 620), HEK-BLUE IL-33/IL-1beta cells, 5 pM cyno IL-33 (5pM cIL-33-Nhis) [14]: 2.9e-08 M | Ph-p38 MFI at 2 nM Ab (500 pM human IL-33, primary basophils) [4]: 38 MFI | IC50 (biotinylated cyno IL-33): 77 nM | Maximum Blocking (biotinylated cyno IL-33): 45% | IC50 (read off the curve) [5]: ~0.0004 nM | Ph-p38 MFI at 0.4 nM Ab (500 pM human IL-33, primary basophils) [6]: 88 MFI | IC50 (biotinylated human IL-33): 0.19 nM | Maximum Blocking (biotinylated human IL-33): 85% | IC50, IL-33-induced phospho-p38 in primary human basophils, 500 pM hIL-33 [9]: 4e-13 M

The next lines start with the values.

EC50 (SEAP reporter OD 620, HEK-BLUE IL-33/IL-1beta cells) [1]: 0.0098 nM
B1: Human IL-33 N-His C-Avi (ligand)
ligand: T6 chain with S26Y, K58E, S75N, Q99H, R127M, S128H, F129S, Y158S, G163C, S164T

IC50 (read off the curve) [12]: ~0.0004 nM | IC50; SEAP reporter (OD 620), HEK-BLUE IL-33/IL-1beta cells, 10 pM hIL-33 [3]: 6.1e-10 M | Ph-p38 MFI at 2 nM Ab (500 pM human IL-33, primary basophils) [4]: 52 MFI | IC50; IFN-gamma ELISA, primary human NK cells, 260 pM hIL-33 + IL-12 [13]: 2.4e-09 M | IC50 (biotinylated cyno IL-33): 45 nM | Maximum Blocking (biotinylated cyno IL-33): 25% | Ph-p38 MFI at 0.4 nM Ab (500 pM human IL-33, primary basophils) [6]: 99 MFI | IC50 (biotinylated human IL-33): 0.19 nM | Maximum Blocking (biotinylated human IL-33): 80% | Kd [7]: 0.359 nM | koff [7]: 0.000626 s⁻¹ | kon [7]: 1.74e+06 M⁻¹ s⁻¹ | t1/2 [7]: 18 min | Kd (cyno IL-33 N-His [8]): 4.2 nM | koff (cyno IL-33 N-His [8]): 0.0392 s⁻¹ | kon (cyno IL-33 N-His [8]): 9.34e+06 M⁻¹ s⁻¹ | t1/2 (cyno IL-33 N-His [8]): 0 min | IC50, IL-33-induced phospho-p38 in primary human basophils, 500 pM hIL-33 [9]: 3.9e-13 M | Kd [10]: 0.549 nM | koff [10]: 0.000438 s⁻¹ | kon [10]: 797000 M⁻¹ s⁻¹ | t1/2 [10]: 26 min | Kd (cyno IL-33 N-His [11]): 2.17 nM | koff (cyno IL-33 N-His [11]): 0.000528 s⁻¹ | kon (cyno IL-33 N-His [11]): 244000 M⁻¹ s⁻¹ | t1/2 (cyno IL-33 N-His [11]): 22 min
B3: H4H9640P (antibody, IgG4, V domains shown)
VH: QVQLQESGPGLVKPSETLSLTCTVSGGSISSYYWSWIRQPPGKGLELIGYIYYSGSTNYNPSLKSRVTISVDTSKNHFSLKLSSVTAADTAVYYCARSQYTSSWYGSFDIWGQGTMVTVSS
VL: DIQMTQSPSSVSASVGDRVTITCRASQGISTWLAWFQQKPGKAPKLLIYAASTLQGGVPSRFSGSGSGPEFTLTISSLQPEDFATYYCQQANSFPWTFGQGTKVEIK
notes: also called RG6

EC50 (SEAP reporter OD 620, HEK-BLUE IL-33/IL-1beta cells) [1]: 0.004 nM
B5: Human IL-33 N-His Biotinylated (ligand)
ligand: T4 chain with S32Y, K64E, S81N, Q105H, R133M, S134H, F135S, Y164S, G169C, S170T
modifications: biotinylated, sites not given

— patent publication US20190092852A1 (Genentech, published 2019)
